What was measured:
[1] = biological target: T1, human complement protein C6 (human, UniProt P13671 22-934); test: C6-binding ELISA, A650 nm; sample 'PBS, non-incubated' (kept at 4 C) [cont.) E]
T1 construct: also called human C6; C6 antigen
Method: (§1) The C6-binding ELISA was then used to compare the binding abilities of the C601 antibodies that had been incubated in the 3 different sera to antibody samples that were incubated in PBS at 37 C or kept at 4 C (non-incubated).
(§2) Binding ELISAs used Nunc Maxisorp 384-well plates, wells coated with C6, C5b,6 complex or C5 (Complement Technology Inc, TX) and goat anti-human IgG (Fab specific) peroxidase secondary antibodies (Sigma-Aldrich, A0293) for detection. For the thermal stability assay, IgG supernatants were diluted to their EC₈₀ concentration, incubated at different temperatures for 10 min and C6 binding measured by ELISA with the binding signal plotted against temperature. Kinetics of C6 binding were measured by capturing antibodies from supernatant samples using Protein G biosensors and performing a 20 min association step with 2.5 nM C6 and a 20 min dissociation step using the Octet RED96. […] Binding of C6 measured using a three-fold concentration series of C6 from 0.03 nM-25 nM and data were fitted using a 1:1 model in two independent experiments.
(§3) The Uncle instrument (Unchained Labs) was used to monitor unfolding via intrinsic fluorescence and aggregation by static light scattering across a temperature gradient to obtain melting temperatures (Tₘ). […] Isoelectric points were determined by capillary isoelectric focusing using a PA800+ (Beckman Coulter).

[2] = biological target: T1, human complement protein C6; test: ELISA, C6-coated wells, large-scale purified antibody
[3] = biological target: T1, human complement protein C6; test: SPR (Biacore 8K)
Method: (§4) The kinetics of C6 binding was compared for the purified chimeric and lead humanized C601 using surface plasmon resonance (SPR, Biacore 8K). IgG were captured on a protein G sensor chip and binding of C6 measured using a three-fold concentration series of C6 from 0.03 nM-25 nM (FIG. 5). In a second experiment, a two-fold concentration series from 0.31 nM-20 nM C6 was used (FIG. 6). For all antibodies, binding of C6 occurred in a concentration-dependent manner and data could be fitted using a 1:1 model to calculate the association rate (kₒₙ), dissociation rates (kd) and affinity constant (KD). The kinetic data are shown in Table 5, which indicates only small differences between the parameters determined from the two independent experiments.
(§5) Binding ELISAs used Nunc Maxisorp 384-well plates, wells coated with C6, C5b,6 complex or C5 (Complement Technology Inc, TX) and goat anti-human IgG (Fab specific) peroxidase secondary antibodies (Sigma-Aldrich, A0293) for detection. For the thermal stability assay, IgG supernatants were diluted to their EC₈₀ concentration, incubated at different temperatures for 10 min and C6 binding measured by ELISA with the binding signal plotted against temperature. Kinetics of C6 binding were measured by capturing antibodies from supernatant samples using Protein G biosensors and performing a 20 min association step with 2.5 nM C6 and a 20 min dissociation step using the Octet RED96. Precise kinetic measurements were obtained by surface plasmon resonance (Biacore 8K, Cytiva). The IgG were captured on a protein G sensor chip. Binding of C6 measured using a three-fold concentration series of C6 from 0.03 nM-25 nM and data were fitted using a 1:1 model in two independent experiments.

[4] = biological target: T1, human complement protein C6; test: SPR (Biacore 8K), IgG on protein G chip, C6 0.03-25 nM 3-fold series, 1:1 fit
Method: as §4, §5

[5] = biological target: T1, human complement protein C6; test: C6-binding ELISA, A650 nm; sample 'C6-depleted human serum' (28 days at 37 C) [cont.) E]
Method: (§6) For the serum stability assessment, samples of the purified candidate antibodies are normally incubated in mouse, human and cynomolgus serum at 37 C for 28 days and then tested in an antigen-binding ELISA. Since the anti-C6 antibodies are expected to bind to both human and cynomolgus C6 but not mouse C6, we anticipated that incubating in human or cynomolgus sera would reduce ELISA binding due to occupation of the antibody binding sites by C6 protein from the sera. Therefore, the chimeric and humanized antibodies were tested with human and mouse sera and with human sera from which the C6 protein has been depleted. […]
(§7) Binding ELISAs used Nunc Maxisorp 384-well plates, wells coated with C6, C5b,6 complex or C5 (Complement Technology Inc, TX) and goat anti-human IgG (Fab specific) peroxidase secondary antibodies (Sigma-Aldrich, A0293) for detection. For the thermal stability assay, IgG supernatants were diluted to their EC₈₀ concentration, incubated at different temperatures for 10 min and C6 binding measured by ELISA with the binding signal plotted against temperature. Kinetics of C6 binding were measured by capturing antibodies from supernatant samples using Protein G biosensors and performing a 20 min association step with 2.5 nM C6 and a 20 min dissociation step using the Octet RED96. […]

[6] = biological target: T1, human complement protein C6; test: C6-binding ELISA, A650 nm; sample 'mouse serum' (28 days at 37 C) [cont.) E]
Method: as §6, §7

[7] = biological target: T1, human complement protein C6; test: C6-binding ELISA, A650 nm; sample 'PBS' (28 days at 37 C) [cont.) E]
Method: (§8) For the serum stability assessment, samples of the purified candidate antibodies are normally incubated in mouse, human and cynomolgus serum at 37 C for 28 days and then tested in an antigen-binding ELISA. Since the anti-C6 antibodies are expected to bind to both human and cynomolgus C6 but not mouse C6, we anticipated that incubating in human or cynomolgus sera would reduce ELISA binding due to occupation of the antibody binding sites by C6 protein from the sera. Therefore, the chimeric and humanized antibodies were tested with human and mouse sera and with human sera from which the C6 protein has been depleted. The C6-binding ELISA was then used to compare the binding abilities of the C601 antibodies that had been incubated in the 3 different sera to antibody samples that were incubated in PBS at 37 C or kept at 4 C (non-incubated).
as §3, with “Coulter). […]” for “Coulter).”

[8] = biological target: human complement protein C5 (human, UniProt P01031 19-673; P01031 678-1676); test: ELISA, C5-coated wells
Chain of human complement protein C5 (P01031 19-673 limits assumed, chain 1 of 2): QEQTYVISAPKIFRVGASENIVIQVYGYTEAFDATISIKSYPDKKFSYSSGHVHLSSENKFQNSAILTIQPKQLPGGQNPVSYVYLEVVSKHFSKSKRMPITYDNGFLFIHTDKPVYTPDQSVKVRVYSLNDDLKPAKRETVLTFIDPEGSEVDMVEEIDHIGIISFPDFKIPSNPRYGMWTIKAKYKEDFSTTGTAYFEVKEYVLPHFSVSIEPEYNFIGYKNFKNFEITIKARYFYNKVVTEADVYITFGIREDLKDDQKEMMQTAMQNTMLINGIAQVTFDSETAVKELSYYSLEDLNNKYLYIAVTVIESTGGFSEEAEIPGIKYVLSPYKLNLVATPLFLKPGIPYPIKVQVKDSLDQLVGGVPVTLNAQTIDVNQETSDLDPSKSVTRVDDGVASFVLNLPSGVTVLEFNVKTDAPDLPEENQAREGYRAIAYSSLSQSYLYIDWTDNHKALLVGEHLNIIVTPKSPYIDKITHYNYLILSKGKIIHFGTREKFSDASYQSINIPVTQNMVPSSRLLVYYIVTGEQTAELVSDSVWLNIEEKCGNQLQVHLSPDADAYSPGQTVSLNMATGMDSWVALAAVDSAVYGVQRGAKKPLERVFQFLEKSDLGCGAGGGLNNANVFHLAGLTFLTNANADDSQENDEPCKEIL
Chain of human complement protein C5 (P01031 678-1676 limits assumed, chain 2 of 2): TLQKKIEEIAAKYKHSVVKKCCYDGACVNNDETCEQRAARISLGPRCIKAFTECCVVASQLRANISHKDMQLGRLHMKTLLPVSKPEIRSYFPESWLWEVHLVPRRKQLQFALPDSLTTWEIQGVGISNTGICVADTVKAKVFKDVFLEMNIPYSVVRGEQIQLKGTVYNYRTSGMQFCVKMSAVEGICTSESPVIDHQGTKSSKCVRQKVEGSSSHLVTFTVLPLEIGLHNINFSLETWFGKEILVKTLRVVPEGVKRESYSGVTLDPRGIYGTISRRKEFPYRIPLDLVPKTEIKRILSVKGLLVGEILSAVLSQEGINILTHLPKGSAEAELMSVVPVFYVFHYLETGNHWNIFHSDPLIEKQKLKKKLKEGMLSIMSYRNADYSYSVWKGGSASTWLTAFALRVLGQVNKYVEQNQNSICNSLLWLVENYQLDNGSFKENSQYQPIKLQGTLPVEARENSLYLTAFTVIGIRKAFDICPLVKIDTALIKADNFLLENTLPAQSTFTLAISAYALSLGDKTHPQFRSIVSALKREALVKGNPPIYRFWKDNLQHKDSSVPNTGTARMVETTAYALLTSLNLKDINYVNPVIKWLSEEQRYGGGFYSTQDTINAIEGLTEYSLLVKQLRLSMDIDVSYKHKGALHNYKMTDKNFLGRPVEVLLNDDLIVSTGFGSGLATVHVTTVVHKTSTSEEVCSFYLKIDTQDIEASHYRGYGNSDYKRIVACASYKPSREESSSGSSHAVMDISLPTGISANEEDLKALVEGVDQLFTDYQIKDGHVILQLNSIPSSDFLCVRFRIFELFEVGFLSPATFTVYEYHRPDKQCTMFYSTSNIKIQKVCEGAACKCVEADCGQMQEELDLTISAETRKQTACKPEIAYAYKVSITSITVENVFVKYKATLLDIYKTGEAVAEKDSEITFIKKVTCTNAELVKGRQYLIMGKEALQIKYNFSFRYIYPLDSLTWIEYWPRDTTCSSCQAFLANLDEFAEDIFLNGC
Method: The 20 purified antibodies were tested by ELISA for their abilities to bind human complement proteins C5, C5b6 and C6. The antibodies were divided into two sets for this analysis. MoC601 HuG4K and HuG4K isotype controls were included alongside each set, as was C601HFKC4 HuG4K (aka 3713) expression supernatant from the original transfection as an additional positive control. In addition, three humanized antibodies (C601HFKC4 HuG4K, C601HPKI HuG4K and C601HPKC4 HuG4K) were included within both sets to allow better comparison between the plates. The antibodies all show specificity for C6 with no detectable binding to C5. All humanized antibodies bind to C6 and to C6 as part of the C5b6 complex. The lower plateaus of the C5b6 complex binding curves are explained by less C6 protein being available for binding when wells are coated with C5b6 complex as opposed to C6 alone. […] The EC₅₀ values are included in the figure but slightly different plateau levels observed for the antibodies are influencing the apparent EC₅₀ values. However, it was noted that the EC₅₀ values tended to be lower on the plates for the second set of antibodies. For this reason, a subset of the 20 antibodies was tested in a further ELISA for binding to C6 and C5b6 complex.
as §5

[9] = biological target: T1, human complement protein C6; test: SPR (Biacore 8K), IgG on protein G chip, C6 0.31-20 nM 2-fold series, 1:1 fit
Method: as §4

[10] = biological target: T1, human complement protein C6; test: C6-binding ELISA, A650 nm; sample 'human serun' (human serum, 28 days at 37 C) [cont.) E]
Method: as §6, §7

[11] = biological target: T1, human complement protein C6; test: C6-binding ELISA, A650 nm; sample 'PBS, non-incubated' (kept at 4 C) [cont.) F]
Method: as §1, §2, §3

[12] = biological target: T1, human complement protein C6; test: C6-binding ELISA, A650 nm; sample 'C6-depleted human serum' (28 days at 37 C) [cont.) F]
Method: as §6, §7

[13] = biological target: T1, human complement protein C6; test: C6-binding ELISA, A650 nm; sample 'PBS' (28 days at 37 C) [cont.) F]
Method: as §8
as §3, with “Coulter). […]” for “Coulter).”

[14] = biological target: T1, human complement protein C6; test: C6-binding ELISA, A650 nm; sample 'mouse serum' (28 days at 37 C) [cont.) F]
Method: as §6, §7

[15] = biological target: T1, human complement protein C6; test: C6-binding ELISA, A650 nm; sample 'human serun' (human serum, 28 days at 37 C) [cont.) F]
Method: as §8
as §3, with “Coulter). […]” for “Coulter).”

T1 sequence (P13671 22-934 limits assumed): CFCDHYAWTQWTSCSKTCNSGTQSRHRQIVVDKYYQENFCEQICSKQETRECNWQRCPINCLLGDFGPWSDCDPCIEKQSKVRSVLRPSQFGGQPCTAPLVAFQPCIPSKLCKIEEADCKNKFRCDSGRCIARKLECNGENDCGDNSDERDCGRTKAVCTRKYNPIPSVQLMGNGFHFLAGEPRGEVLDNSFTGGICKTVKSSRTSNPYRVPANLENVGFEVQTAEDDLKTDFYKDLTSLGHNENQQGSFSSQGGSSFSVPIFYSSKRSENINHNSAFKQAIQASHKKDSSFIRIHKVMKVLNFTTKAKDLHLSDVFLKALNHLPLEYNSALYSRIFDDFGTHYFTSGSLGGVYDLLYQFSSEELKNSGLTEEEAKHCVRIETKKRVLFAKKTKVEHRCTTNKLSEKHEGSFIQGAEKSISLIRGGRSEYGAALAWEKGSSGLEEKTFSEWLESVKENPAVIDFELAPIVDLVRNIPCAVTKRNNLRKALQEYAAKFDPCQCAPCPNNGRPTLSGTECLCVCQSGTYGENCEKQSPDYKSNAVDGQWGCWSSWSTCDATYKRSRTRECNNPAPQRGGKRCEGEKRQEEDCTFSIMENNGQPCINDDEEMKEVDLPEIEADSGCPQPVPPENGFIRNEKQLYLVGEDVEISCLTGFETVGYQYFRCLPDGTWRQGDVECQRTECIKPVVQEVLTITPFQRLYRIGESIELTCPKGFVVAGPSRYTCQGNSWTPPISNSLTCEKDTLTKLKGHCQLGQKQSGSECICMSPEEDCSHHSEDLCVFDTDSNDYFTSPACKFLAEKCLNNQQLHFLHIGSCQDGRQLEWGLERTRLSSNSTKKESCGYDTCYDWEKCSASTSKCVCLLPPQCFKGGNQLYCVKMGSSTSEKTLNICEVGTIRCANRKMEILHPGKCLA

EC50 [1] | EC50 [2] | Kd [3] | Kd [4] | koff [4] | kon [4] | EC50 [5] | EC50 [6] | EC50 [7] | binding result [8] | Kd [9] | koff [9] | kon [9] | EC50 [10] | EC50 [11] | EC50 [12] | EC50 [13] | EC50 [14] | EC50 [15] | Binder
0.13 nM | 0.21 nM | 0.411 nM | 0.411 nM | 0.000492 s⁻¹ | 1.2e+06 M⁻¹ s⁻¹ | 0.15 nM | 0.16 nM | 0.18 nM | no binding | 0.284 nM | 0.000375 s⁻¹ | 1.32e+06 M⁻¹ s⁻¹ | 0.16 nM | – | – | – | – | – | C601HOKC4 HuG4K (antibody, human IgG4 S228P, kappa, V domains shown) VH: QVQLVQSGAEVKKPGESLKISCKASGYAFSDYWINWVRQMPGKGLEWMGQIYPGDDDTNYNPSFQGQATLSADKSISTAYLQWSSLKASDTAMYYCAREGYYGYTYVEYFDVWGTGTTVTVSS VL: QIVLTQSPATLSLSPGERATLSCRASSSVSYLHWYQQKPGQSPRLWIYDTSKRATGIPARFSGSGSGTDYTLTISSLEPEDFAVYYCQQWTSNPLTFGQGTKLEIKR
– | 0.23 nM | 0.373 nM | 0.373 nM | 0.000397 s⁻¹ | 1.07e+06 M⁻¹ s⁻¹ | – | – | – | no binding | 0.299 nM | 0.000355 s⁻¹ | 1.19e+06 M⁻¹ s⁻¹ | – | 0.22 nM | 0.17 nM | 0.19 nM | 0.16 nM | 0.17 nM | C601HPKC4 HuG4K (antibody, human IgG4 S228P, kappa) heavy: not shown light: QIVLTQSPATLSLSPGERATLSCRASSSVSYLHWYQQKPGQSPRLWIYDTSKRATGIPARFSGSGSGTDYTLTISSLEPEDFAVYYCQQWTSNPLTFGQGTKLEIKRTVAAPSVFIFPPSDEQLKSGTASVVCLLNNFYPREAKVQWKVDNALQSGNSQESVTEQDSKDSTYSLSSTLTLSKADYEKHKVYACEVTHQGLSSPVTKSFNRGEC

Source: patent US20260125455A1 (CLEVELAND CLINIC FOUNDATION, published 2026)
